Molecular target: T1, GPVIex (nonglycosylated human GPVI extracellular domain residues 1 to 183) (Homo sapiens)
T1 chain: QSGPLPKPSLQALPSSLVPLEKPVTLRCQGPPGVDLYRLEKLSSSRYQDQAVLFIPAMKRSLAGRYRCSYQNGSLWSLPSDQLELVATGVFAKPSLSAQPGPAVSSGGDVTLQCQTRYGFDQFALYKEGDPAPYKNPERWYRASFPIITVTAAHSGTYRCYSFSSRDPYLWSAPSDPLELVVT
Experiment: crystal structure

B1: Glenzocimab (Fab, V domains shown)
VH: QVQLVQSGAEVKKPGASVKVSCKASGYTFTSYNMHWVRQAPGQGLEWMGGIYPGNGDTSYNQKFQGRVTMTRDTSTSTVYMELSSLRSEDTAVYYCARGTVVGDWYFDVWGQGTLVTVSS
VL: DIQMTQSPSSLSASVGDRVTITCRSSQSLENSNGNTYLNWYQQKPGKAPKLLIYRVSNRFSGVPSRFSGSGSGTDFTFTISSLQPEDIATYYCLQLTHVPWTFGQGTKVEIT
B1: binds.

Reference: publication PMC10119634 (Blood Advances, 2022)
